# Experimental data: patent US20160271157A1, “BETA-CATENIN” (UCL BUSINESS PLC, priority 2013, published 2016)
# B1: Wnt5A: Recombinant Wnt peptide purchased from R&D systems (protein, UniProt P41221 62-380, looked up)
# Protein Wnt-5a: IIGAQPLCSQLAGLSQGQKKLCHLYQDHMQYIGEGAKTGIKECQYQFRHRRWNCSTVDNTSVFGRVMQIGSRETAFTYAVSAAGVVNAMSRACREGELSTCGCSRAARPKDLPRDWLWGGCGDNIDYGYRFAKEFVDARERERIHAKGSYESARILMNLHNNEAGRRTVYNLADVACKCHGVSGSCSLKTCWLQLADFRKVGDALKEKYDSAAAMRLNSRGKLVQVNSRFNSPTTQDLVYIDPSPDYCVRNESTGSLGTQGRLCNKTSEGMDGCELMCCGRGYDQFKTVQTERCHCKFHWCCYVKCKKCTEIVDQFVCK
# B2: Wnt9B: Recombinant Wnt peptide purchased from R&D systems (protein, UniProt O14905 23-357, looked up)
# Protein Wnt-9b: SYFGLTGREVLTPFPGLGTAAAPAQGGAHLKQCDLLKLSRRQKQLCRREPGLAETLRDAAHLGLLECQFQFRHERWNCSLEGRMGLLKRGFKETAFLYAVSSAALTHTLARACSAGRMERCTCDDSPGLESRQAWQWGVCGDNLKYSTKFLSNFLGSKRGNKDLRARADAHNTHVGIKAVKSGLRTTCKCHGVSGSCAVRTCWKQLSPFRETGQVLKLRYDSAVKVSSATNEALGRLELWAPARQGSLTKGLAPRSGDLVYMEDSPSFCRPSKYSPGTAGRVCSREASCSSLCCGRGYDTQSRLVAFSCHCQVQWCCYVECQQCVQEELVYTCKH
# What was measured:
# [1] = tested on: β-catenin translocation to the nucleus; experiment: β-catenin immunocytochemistry, MCF7; format: cell-based, human; conditions: MCF7 breast cancer cell line
# Protocol: Immunostaining was performed in two different laboratories, independently with the experimenter blind to the identity of the treatment. Either cells used in FluoroDish, post [Ca^2+]i experiments using dyes (see above) or grown in 8 well chamber glass slides (Lab Tek II, Nunc) were used. For Wnt ligand treatment, the culture medium replaced with PBS (without calcium) at 37° C. The experiments were replicated for Wnt ligand or vehicle control as described for [Ca^2+]i measurements. Briefly, Wnt ligands were added and chamber slides incubated at 37° C. for up to 20 min. Chamber wells were washed 3× with 0.5 ml PBS and cells were fixed with 0.5 ml 4% formalin for 30 min at 4° C. Cells were washed 3× with ice cold PBS and stored in 0.5 ml PBS at 4° C. for immunostaining. In some experiments PC3 cells were treated with thaspsigargin as described above.
# For immunostaining cells were washed twice for 5 minutes in TBST (20 mM Tris pH 7.4, 0.9% NaCl, 0.1% Tween 20, Sigma). Cells were then incubated in 20% normal goat serum (NGS)/TBST for 30 min at room temperature, the chambers were drained and cells were incubated with mouse anti-β-catenin (ab22656, Abcam, UK) at 1:500 dilution in NGS/TBST overnight at 4° C. […]
# Fluorescence immunocytochemical staining for β-catenin expression in cell lines was imaged using Olympus Fluoview 1000 Confocal Microscope (Olympus KeyMed) mounted on an Olympus IX81 inverted microscope using a 20×0.7 NA or 40×1.0 NA dry objective with a zoom of ×3.4′,6-diamidino-2-phenylindole (DAPI, nuclear counterstain) was excited at 405 nm with an emission of 415-500 nm; Cy3 (β-catenin label) signal was excited at 561 nm with an emission spectrum between 570-670 nm. […]
# Nuclear co-localization of β-catenin was calculated by importing FV files for untreated, control or treated cells, into colocalization plugin of Fiji software (http://fiji.sc/Fiji) for Cy3 (β-catenin) and DAPI (nuclear) signals. […] Statistical significance between untreated and treated cells was calculated using Mann Whitney U test.
# [2] = tested on: 253J urinary tract (bladder) cancer cell line; experiment: Live [Ca2+]i imaging after addition of Wnt ligand, 253J; format: cell-based, human; conditions: 253J cells
# Protocol: The imaging protocol was developed in the inventor's laboratory and has been described in detail, elsewhere (Wang at al., (2010) PLoS ONE 5, e10456). Briefly, 100000-200000 PC3, MCF7, 253J or Cos 7 cells were plated on 35 mm FluoroDish (WPI) and grown for 48 h; calcium indicators Fluo-4 (Invitrogen) and FuraRed (Invitrogen) at 1 ng/ml were added to FluoroDish containing only 1 ml of culture medium and incubated for 15-20 min at 37° C. The culture medium was removed and washed (×2) and replaced with 1 ml PBS. Live cell calcium Imaging was performed on an Olympus FluoView FV 1000 confocal microscope (Olympus […]) equipped with a 20× dry objective (numerical aperture=0.75). Calcium indicators were excited with an argon laser line (488 nm) and emissions recorded in the green channel (500-560 nm) for Fluo-4 and red channel (600-700 nm) for FuraRed after addition of vehicle control (PBS) or Wnt X (30-600 ng/ml). Images were acquired every 1.1 or 2.2 seconds for up to 600-800s; image and data acquisition was performed using FluoView 1000 software (Olympus, UK). Fluorescent intensity was measured and data exported as a tab delimited file for further analysis using a spreadsheet. All imaging experiments were performed in duplicate; intracellular calcium at 100 ng/ml was measured in at least 3-12 different passages (passage numbers 25 to 37) of cell line for each Wnt ligand. Wnt 11 was tested in at least 5 different passages at 3 different concentrations. […] The measurements were exported as a tab delimited file into a spreadsheet for further analysis and Fluo4/Fura Red ratios were calculated. […] The time constants (rise, dwell and fall times) were calculated by first fitting the Fluo4/FuraRed ratio to a single Gaussian function (Origin Lab Corp., MA); a lower (10%) and upper (90%) amplitude thresholding method was then used to calculate the time constants (s). Statistical significance was calculated using Mann Whitney U test.
Molecule,β-catenin translocation into the nucleus after Wnt treatment [1],[Ca2+]i release in response to Wnt ligand [2]
Wnt10B: Recombinant Wnt peptide purchased from R&D systems,β-catenin translocation into the nucleus,activated [Ca^2+]i release
B1,β-catenin translocation into the nucleus,activated [Ca^2+]i release
B2,β-catenin translocation into the nucleus,activated [Ca^2+]i release
